# T1: recombinant human Fibroblast Activation Protein (FAP) with N-terminus 6x histidine tag (human, UniProt Q12884 26-760)
# T1 construct: Bought protein; also called rFAP; rhFAP
# T1 sequence: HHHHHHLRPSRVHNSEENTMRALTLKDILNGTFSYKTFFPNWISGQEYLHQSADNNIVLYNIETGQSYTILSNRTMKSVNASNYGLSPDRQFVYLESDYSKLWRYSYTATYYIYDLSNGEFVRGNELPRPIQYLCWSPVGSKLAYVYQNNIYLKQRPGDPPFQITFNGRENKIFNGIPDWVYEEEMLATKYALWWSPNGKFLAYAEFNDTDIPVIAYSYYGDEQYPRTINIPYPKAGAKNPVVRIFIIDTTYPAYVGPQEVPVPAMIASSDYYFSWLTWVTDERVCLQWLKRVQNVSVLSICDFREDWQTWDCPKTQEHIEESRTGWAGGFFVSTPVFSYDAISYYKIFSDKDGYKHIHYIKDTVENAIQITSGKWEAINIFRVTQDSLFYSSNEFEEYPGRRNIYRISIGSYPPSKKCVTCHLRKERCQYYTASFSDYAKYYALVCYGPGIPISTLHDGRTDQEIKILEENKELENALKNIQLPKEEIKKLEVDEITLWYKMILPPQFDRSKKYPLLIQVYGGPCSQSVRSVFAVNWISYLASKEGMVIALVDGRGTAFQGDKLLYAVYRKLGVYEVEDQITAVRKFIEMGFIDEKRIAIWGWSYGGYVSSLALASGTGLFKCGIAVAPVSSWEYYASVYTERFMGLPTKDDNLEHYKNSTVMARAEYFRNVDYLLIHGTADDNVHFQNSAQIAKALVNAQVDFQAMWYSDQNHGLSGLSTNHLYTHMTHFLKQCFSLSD
# T2: cFAP (mixture of three FAP peptides) (human)
# T2 construct: A mixture of three separate peptides coated together, not a complex; The three chains are the three components; also called directly coated FAP peptides mixture
# T2 peptide 1: HYIKDTVENAIQITS
# T2 peptide 2: GWSYGGYVSSLALAS
# T2 peptide 3: QVDFQAMWYSDQNHGL
# T3: recombinant human Prolyl Oligopeptidase/Prolyl Endopeptidase (POP/PREP) (human, UniProt P48147 1-710)
# T3 construct: Bought active enzyme; also called rhPOP/PREP; BPS Bioscience 80105
# T3 sequence (looked up): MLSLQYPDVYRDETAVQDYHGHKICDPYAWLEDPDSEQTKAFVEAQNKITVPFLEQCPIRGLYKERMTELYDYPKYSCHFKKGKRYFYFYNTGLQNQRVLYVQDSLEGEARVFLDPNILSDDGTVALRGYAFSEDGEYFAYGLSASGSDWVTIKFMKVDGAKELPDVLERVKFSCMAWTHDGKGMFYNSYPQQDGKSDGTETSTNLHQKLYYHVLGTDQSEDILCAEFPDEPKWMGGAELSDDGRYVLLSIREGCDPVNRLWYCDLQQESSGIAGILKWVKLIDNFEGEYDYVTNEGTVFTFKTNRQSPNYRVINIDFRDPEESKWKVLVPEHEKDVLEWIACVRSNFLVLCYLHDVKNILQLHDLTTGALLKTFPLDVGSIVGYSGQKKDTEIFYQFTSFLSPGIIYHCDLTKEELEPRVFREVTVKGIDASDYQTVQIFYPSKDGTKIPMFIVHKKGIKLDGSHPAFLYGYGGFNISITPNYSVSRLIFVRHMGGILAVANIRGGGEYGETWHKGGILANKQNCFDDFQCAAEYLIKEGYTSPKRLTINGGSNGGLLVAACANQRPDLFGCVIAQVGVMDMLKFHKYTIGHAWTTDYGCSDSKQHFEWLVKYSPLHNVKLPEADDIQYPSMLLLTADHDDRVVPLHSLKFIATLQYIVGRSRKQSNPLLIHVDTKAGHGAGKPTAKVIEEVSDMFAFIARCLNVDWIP
# How the values were obtained:
# [1] = target: T1, recombinant human Fibroblast Activation …; assay: direct ELISA: rFAP directly coated (FAP)
# [2] = target: T2, cFAP (mixture of three FAP peptides); assay: direct ELISA: coated mixture of three FAP peptides (cFAP)
# [3] = target: T4, recombinant human Dipeptidyl Peptidase 9 (DPP9) (human, UniProt Q86TI2 1-863, limits assumed); assay: sandwich ELISA: F19 coated as capture antibody, homologue titrated, HRP-labelled NI-206.82C2 as detection antibody; no signal means that no F19/antigen/82C2 sandwich formed
# T4 construct: Bought active enzyme; also called rhDPP9
# T4 sequence (Q86TI2 whole entry): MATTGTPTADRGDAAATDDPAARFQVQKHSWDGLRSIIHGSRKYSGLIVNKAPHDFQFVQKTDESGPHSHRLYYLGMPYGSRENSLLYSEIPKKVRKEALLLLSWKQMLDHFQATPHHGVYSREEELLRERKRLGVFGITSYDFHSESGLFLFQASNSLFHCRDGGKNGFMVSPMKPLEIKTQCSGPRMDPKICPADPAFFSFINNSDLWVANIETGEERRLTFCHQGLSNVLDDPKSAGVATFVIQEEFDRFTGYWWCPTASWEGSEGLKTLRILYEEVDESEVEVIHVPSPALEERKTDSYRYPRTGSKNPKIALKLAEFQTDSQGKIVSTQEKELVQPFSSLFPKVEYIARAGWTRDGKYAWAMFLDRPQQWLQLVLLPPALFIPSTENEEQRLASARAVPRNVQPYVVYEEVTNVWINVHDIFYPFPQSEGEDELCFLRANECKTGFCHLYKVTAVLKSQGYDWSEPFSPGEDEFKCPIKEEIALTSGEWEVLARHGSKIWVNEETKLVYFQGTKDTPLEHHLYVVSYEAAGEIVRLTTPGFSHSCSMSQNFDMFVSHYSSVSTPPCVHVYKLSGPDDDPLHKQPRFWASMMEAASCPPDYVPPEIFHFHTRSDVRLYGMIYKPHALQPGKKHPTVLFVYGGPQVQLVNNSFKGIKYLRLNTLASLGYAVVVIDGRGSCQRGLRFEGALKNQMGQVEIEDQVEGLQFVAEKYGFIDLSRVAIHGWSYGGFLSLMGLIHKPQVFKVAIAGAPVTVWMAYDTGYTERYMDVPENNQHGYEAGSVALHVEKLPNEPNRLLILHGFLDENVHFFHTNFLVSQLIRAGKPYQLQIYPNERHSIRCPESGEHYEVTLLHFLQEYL
# Method: (§1) The coating solution was removed and the plate was blocked with 40 μL 2% BSA in PBS blocking buffer for 1 h at room temperature and then discarded. 30 uL sample solution was then added. Sample solutions included recombinant human FAP standard (FIG. 17A), human serum at varying dilutions (FIG. 17B), FAP homologues (FIG. 17C), serum samples from healthy patients (FIGS. 18 and 19), serum samples patients with metastatic colorectal cancer (FIG. 18), serum samples from patients with cardiovascular disease (FIG. 19), sodium citrate plasma samples from healthy patients (FIG. 20), and sodium citrate samples from patients with symptomatic carotid atherosclerotic plaques (FIG. 20). Sample solutions were added at a total volume of 30 μL. The plate was washed three times with 40 μL PBS and blotted dry. […] The plate was then washed again three times with 3×PBS and blotted dry. 30 μL TMB (3,3′,5,5′-Tetramethylbenzidine) solution was then added to each well and allowed to develop for 5-10 minutes at room temperature. The reaction was then stopped by the addition of 30 μL 1M H2SO4, and absorbance at 450 nm was read with a plate reader.
# [4] = target: T3, recombinant human Prolyl …; assay: as above
# Method: as §1
# [5] = target: T1, recombinant human Fibroblast Activation …; assay: direct ELISA: rFAP coated directly on the plate, antibody titrated, OD 450 nm
binder,measurement,setting,value
"NI-206.82C2 (antibody, V domains shown, Recombinantly expressed as complete human IgG1 with a lambda light chain; HRP-labelled in the homologue and sandwich ELISAs, Cy5-labelled in flow cytometry; also called HRP-labelled 82C2; Cy5 labelled 82C2) VH: QVQLQQSGPGLVKPSQTLSLTCAISGDSVSSNSVTWNWIRQSPSRGLEWLGRTYYRSKWYNDYAVSVKGRITINPDTSKNQFYLQLKSVTPEDAAVYYCARDSSILYGDYWGQGTLVTVSS VL: QAVLTQPSSLSASPGASASLTCTLPSGINVGTYRIFWFQQKPGSPPQYLLSYKSDSDNHQGSGVPSRFSGSKDASANAGILLISGLQSEDEADYYCMIWHSSAWVFGGGTKLTVL",EC50,[1],0.61 nM
same,binding result,[2],no binding
same,binding result,[3],no binding (tested: 250 ng/mL)
same,binding result,[4],no binding (tested: 250 ng/mL)
same,EC50,[5],0.608 nM

# Reference: patent US20180022822A1 (MABIMMUNE DIAGNOSTICS, published 2018)
